Test results as given in article PMC7611114 (Nature chemistry, 2021).

Biological target: the molecule itself
Test: crystal structure

Q: With Ac-GKKSAWATVISALATVISALATVISAWATVG-NH2 [K2-CCTM-VbIc] as the protein, how does the “stoichiometry N” value read?
A: The value was 8.
